Data reported in patent publication US20220074947A1 (UCB, published 2022).

Key:
[1] = target: T1, human TNFα in complex with compound (1) (human, UniProt P01375 77-233); experiment: SPR (BIAcore), against apo human TNFα
T1 construct: also called human TNFα +compound (1); TNFα-compound (1) complex

[2] = target: T2, human TNFα in complex with compound (2) (human, UniProt P01375 77-233); experiment: SPR (BIAcore), against apo human TNFα
T2 construct: also called human TNFα +compound (2); compound-distorted human TNFα
T2 sequence (P01375 77-233 limits assumed, one chain of several): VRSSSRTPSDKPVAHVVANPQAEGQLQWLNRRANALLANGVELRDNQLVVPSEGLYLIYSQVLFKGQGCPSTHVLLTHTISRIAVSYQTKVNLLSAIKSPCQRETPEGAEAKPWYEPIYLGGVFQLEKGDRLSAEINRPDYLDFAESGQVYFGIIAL

T1 sequence (P01375 77-233 limits assumed, one chain of several): as above

selective binding for compound-distorted over apo human TNFα (log) [1]: > 2 log
selective binding for compound-distorted over apo human TNFα (log) [2]: > 2 log
B1: CA185_01979 mouse IgG1 (antibody, V domains shown)
VH: EVHLVESGPGLVKPSQSLSLTCSVTGYSITNSYWDWIRKFPGNKMEWMGYINYSGSTGYNPSLKSRISISRDTSNNQFFLQLNSITTEDTATYYCARGTYGYNAYHFDYWGRGVMVTVSS
VL: DIQMTQSPASLSASLEEIVTITCQASQDIGNWLSWYQQKPGKSPHLLIYGTTSLADGVPSRFSGSRSGTQYSLKISGLQVADIGIYVCLQAYSTPFTFGSGTKLEIKR
notes: mIgG1 heavy chain and kappa light chain; also called CA185_01979.0; VR0001842
